Results from US20220218614A1, “IONIZABLE CATIONIC LIPIDS AND LIPID NANOPARTICLES, AND METHODS OF SYNTHESIS AND USE THEREOF” (Tidal Therapeutics, Inc., priority 2020, published 2022).

B1: Lorvotuzumab: anti-CD56 Lorvotuzumab Fab bDS, SEQ ID NO: 32 and 33 (antibody)
heavy: QVQLVESGGGVVQPGRSLRLSCAASGFTFSSFGMHWVRQAPGKGLEWVAYISSGSFTIYYADSVKGRFTISRDNSKNTLYLQMNSLRAEDTAVYYCARMRKGYAMDYWGQGTLVTVSSASTKGPSVFPLAPSSKSTSGGTAALGCLVKDYFPEPVTVSWNSGALTSGVHTCPAVLQSSGLYSLSSVVTVPSSSLGTQTYICNVNHKPSNTKVDKKVEPKSSDKTHTCHHHHHH
light: DVVMTQSPLSLPVTLGQPASISCRSSQIIIHSDGNTYLEWFQQRPGQSPRRLIYKVSNRFSGVPDRFSGSGSGTDFTLKISRVEAEDVGVYYCFQGSHVPHTFGQGTKVEIKRTVAAPSVFIFPPSDEQLKSGTASVVCLLNNFYPREAKVQWKVDNALQSGNSQESVTEQDSKDSTYSLCSTLTLSKADYEKHKVYACEVTHQGLSSPVTKSFNRGES
B2: Teplizumab: anti-CD3 Teplizumab bDS Fab, SEQ ID NO: 54 and 55 (antibody)
heavy: QVQLVQSGGGVVQPGRSLRLSCKASGYTFTRYTMHWVRQAPGKGLEWIGYINPSRGYTNYNQKVKDRFTISRDNSKNTAFLQMDSLRPEDTGVYFCARYYDDHYCLDYWGQGTPVTVSSASTKGPSVFPLAPSSKSTSGGTAALGCLVKDYFPEPVTVSWNSGALTSGVHTCPAVLQSSGLYSLSSVVTVPSSSLGTQTYICNVNHKPSNTKVDKKVEPKSSDKTHTCHHHHHH
light: DIQMTQSPSSLSASVGDRVTITCSASSSVSYMNWYQQTPGKAPKRWIYDTSKLASGVPSRFSGSGSGTDYTFTISSLQPEDIATYYCQQWSSNPFTFGQGTKLQITRTVAAPSVFIFPPSDEQLKSGTASVVCLLNNFYPREAKVQWKVDNALQSGNSQESVTEQDSKDSTYSLCSTLTLSKADYEKHKVYACEVTHQGLSSPVTKSFNRGES
B3: A3: anti-CD56 A3 Fab bDS, SEQ ID NO: 30 and 31 (antibody)
heavy: EVQLVQSGAEVKKPGSSVKVSCKASGGTFTGYYMHWVRQAPGQGLEWMGWINPNSGGTNYAQKFQGRVTMTRDTSISTAYMELSRLRSDDTAVYYCARDLSSGYSGYFDYWGQGTLVTVSSASTKGPSVFPLAPSSKSTSGGTAALGCLVKDYFPEPVTVSWNSGALTSGVHTCPAVLQSSGLYSLSSVVTVPSSSLGTQTYICNVNHKPSNTKVDKKVEPKSSDKTHTCGGHHHHHH
light: DVVMTQSPLSLPVTPGEPASISCRSSQSLLHSNGYNFLDWYLQKPGQSPQLLIYLGSNRASGVPDRFSGSGSGTDFTLKISRVEADDVGVYYCMQSLQTPWTFGHGTKVEIKRTVAAPSVFIFPPSDEQLKSGTASVVCLLNNFYPREAKVQWKVDNALQSGNSQESVTEQDSKDSTYSLCSTLTLSKADYEKHKVYACEVTHQGLSSPVTKSFNRGES

Assays:
Type in all cases: cell-based
primary human NK cells = assay: LNP transfection of co-cultured human T cells and NK cells: NK cells; settings: Lipid 8 LNP, 2.5 ug/mL mRNA, 24 hours
Method: CD3-depleted PBMCs were purified using magnetic-based CD3 positive selection and retaining of the negative fraction. 20 million CD3 depleted PBMCs were added to 1 well of a 6 well GREX plate in media containing 10 ng/mL IL-15 for 7 days. On day 7, each well was split in 2 and cells were cultured further in media containing 10 ng/mL IL-15 for an additional 7 days. On day 14, NK cells were concentrated to 1 million cells/mL in preparation for co-transfection with primary human T cells.
LNPs were prepared using the mixing process described in Example 6, the buffer exchange process described in Example 25. The LNPs were formulated using eGFP encoding mRNA (TriLink Biotechnologies, California, US), Lipid 8 as the ionizable lipid, and labeled with 0.01 mol % DiIC18(5)-DS (Invitrogen, Massachusetts, US). Fab-lipid conjugates generated from methods described in Example 4 while generation of Nb-conjugated differed in using 1:1:4 Nb:DSPE-SKPEG-maileimide:DSPE-2KPEG-OCH3 and a 50 kD UF membrane (Millipore Corp, Billerica, Mass. USA) for separation of Nb-conjugate from free Nb. Using methods similar to Example 12, conjugated Fabs and conjugated Nb were post-inserted at various densities (Table 41) into LNPs containing Lipid 8 and GFP mRNA with DiI dye. […]. […]
24 hours after LNP transfection, cell culture media was aspirated from T cell and NK cell co-cultures after centrifugation. […] Following acquisition by flow cytometry, T cells and NK cells were analyzed independently using FlowJo (flow cytometry analysis software). In either CD3+ cells (T cells) or CD56+ cells (NK cells), the frequency of GFP positive events relative to GFP negative events was calculated (FIG. 64A). Additionally, the overall fluorescence of GFP was quantified by assessment of mean fluorescence intensity (MFI, FIG. 64B). […] Together, these metrics enabled quantification of LNP transfection efficiency of all targeted LNPs tested in primary human T cell and NK cell co-cultures.

IFNγ = assay: Human IFNγ ELISA of T cell culture supernatants after LNP transfection; settings: T cells approximately 24 hr after targeted LNPs at approximately 2.5 μg/mL mRNA
Method: LNPs were prepared using the mixing process described in Example 6, the buffer exchange process described in Example 21. hSP34 and TRX2 Fab-lipid conjugates generated from methods described in Example 4 and a non-T cell specific anti-HER2 lipid-conjugate (Nellis D F, Ekstrom D L, Kirpotin D B, Zhu J, Andersson R, Broadt T L, Ouellette T F, Perkins S C, Roach J M, Drummond D C, Hong K, Marks J D, Park J W and Giardina S L (2005) Preclinical manufacture of an anti-HER2 scFv-PEG-DSPE, liposome-inserting conjugate. 1. Gram-scale production and purification. Biotechnol Prog 21:205-220) were post-inserted at various densities (SP34 0.6-17 g/mol; TRX2 3-9 g/mol; anti-HER2 17 g/mol) into LNPs containing Lipid 8, Cy5 labeled GFP mRNA and GFP mRNA (1:9 Cy5:GFP mass ratio) by adding conjugate and LNPs together and heating the solution without mixing in a thermal cycler at 60 C for 60 min and cooled to 4° C. for 3-5 min. […] After transfection, LNP binding efficiency (Cy5) and transfection efficiency (GFP) was evaluated by flow cytometry. Supernatants were measured for human IFNγ concentration using a commercially available ELISA kit under manufacturers recommended conditions (R&D Systems Duoset).
IFN-γ was assayed using an R&D Duoset […] ELISA kit, PN DY285B. […] Optical density at 450 nm was read on a Spectramax M5 plate reader. […]

human CD3 T cells = assay: Transfection of human CD3 T cells (CD8 and CD4 subsets) with Fab/Nb-targeted LNPs; settings: targeted Lipid 8 LNP (Lipid 5 in Example 43), GFP mRNA approximately 2.5 μg/mL, approximately 24 hr
Method: LNPs were prepared using the mixing process described in Example 6, the buffer exchange process described below in Example 21. Using methods similar to Example 12, hSP34 and TRX2 Fab-lipid conjugates and a non-T cell specific anti-HER2 lipid-conjugate (Nellis D F, Ekstrom D L, Kirpotin D B, Zhu J, Andersson R, Broadt T L, Ouellette T F, Perkins S C, Roach J M, Drummond D C, Hong K, Marks J D, Park J W and Giardina S L (2005) Preclinical manufacture of an anti-HER2 scFv-PEG-DSPE, liposome-inserting conjugate. 1. Gram-scale production and purification. Biotechnol Prog 21:205-220) were post-inserted at various densities (SP34 0.25-17 g/mol; TRX2 0.25-9 g/mol; SP34+TRX2 0.25-9 g/mol each conjugate; anti-HER2 17 g/mol) into LNPs containing Lipid 8 and anti-CD20 targeting CART mRNA. Transfections were performed with human CD3 T cells at approximately 2.5 μg/mL mRNA for approximately 24 hr. For FACS analysis T cells were stained with M1 antibody (Sigma, F3040) that bind a N-terminus FLAG-tag variant sequence on the TTR-023 CAR (sequence provided below) in addition to staining for CD69 (Biolegend, 310930) and CD4 (Biolegend, 344648) to differentiate CD8 from CD4 cells.
LNPs were prepared using the mixing process described in Example 6, the buffer exchange process described in Example 21. Using methods similar to Example 12, hSP34, TRX2, and Ibalizumab Fab-lipid conjugates and a non-T cell specific anti-HER2 lipid-conjugate were post-inserted at various densities (specified in FIGS. 20A and 20B into LNPs containing Lipid 8 and Cy5/GFP mRNA. Transfections were performed with human CD3 T cells at approximately 2.5 μg/mL mRNA for approximately 24 hr and stained for CD69 (Biolegend, 310930) and CD4 (Biolegend, 344648) to differentiate CD8 from CD4 cells by FACS analysis.
LNPs were prepared using the mixing process described in Example 6, the buffer exchange process described in Example 21. Conjugates were generated using a method similar to that of Example 4 except 0.025, 0.1, 0.5 mM TCEP was used for hSP34 DS, 0.025, 0.2, 2 mM TCEP was used for hSP34-hlam NoDS (interchain disulfide knockout) for reduction prior to conjugation and the conjugation reactions were performed at 37 C for 2 hr. SDS-PAGE (FIGS. 65A, 65B) was performed using the manufacturers recommended conditions with 1 ug of protein (Thermo, 4-12% Bis-Tris MiniGel). RP-HPLC (FIGS. 65C, 65D) was performed using an Agilent 300 SB-C8 at 0.5 mL/min with a column temperature of 60° C., Mobile Phase A: Water with 0.1% TFA, Mobile Phase B: Acetonitrile with 0.1% TFA, Gradient % B: 0 min 5%, 1 min 5%, 6.5 min 95%, 8 min 95% injecting 10 ul with a target of 1-25 ug of protein. Using methods similar to Example 12, ant-CD3 hSP34 (with and without natural interchain disulfide, DS (with interchain disulfide) vs. NoDS (without interchain disulfide), see sequences below) PEG-lipid conjugated Fabs were post-inserted at various Fab densities (6, 12, 17 g Fab/mol total lipid) into LNPs containing Lipid 8 and Cy5/GFP mRNA. Transfections were performed with human CD3 T cells at approximately 2.5 μg/mL mRNA for approximately 24 hr. Levels of transfection of CD3 T cells was measured by flow cytometry.
LNPs were prepared using the mixing process described in Example 6, the buffer exchange process described in Example 21. Conjugates were generated using a method similar to that of Example 4 except 0.1 mM TCEP was used for reduction prior to conjugation and the conjugation reaction was performed at 37 C for 2 hr. […]

Row | Molecule | transfection of NK cells in T/NK co-culture (% GFP, GFP MFI, DiI), in words (primary human NK cells) | IFNγ secretion into supernatant, in words (IFNγ) | % GFP transfection and GFP expression (MFI) of CD8 and CD4 T cells, in words (human CD3 T cells)
1 | B1 | highly specific transfection of NK cells |  | 
2 | B2 |  | higher levels of IFNγ secretion than SP34 | lower levels of GFP expression
3 | B3 | highly specific transfection of NK cells |  | 
